Source: the Immune Epitope Database (IEDB)
pKd: −log10 of the molar value.

Experiments:
HLA-A*23:01 = assay: IEDB peptide-MHC binding, purified MHC/direct/fluorescence; filed as Kd, often an IC50 or EC50 that approximates it; ≥ and ≤ were set here for values at or beyond the usual limits of such assays
HLA-A*24:03 [1] = assay: as above
HLA-A*24:03 [2] = assay: IEDB peptide-MHC binding, purified MHC/competitive/fluorescence; filed as Kd, often an IC50 or EC50 that approximates it; ≥ and ≤ were set here for values at or beyond the usual limits of such assays
HLA-A*31:01 [3] = assay: as above; details: source organism: Bacillus anthracis str. A0488
HLA-B*58:01 = assay: IEDB peptide-MHC binding, purified MHC/direct/fluorescence; filed as Kd, often an IC50 or EC50 that approximates it; ≥ and ≤ were set here for values at or beyond the usual limits of such assays; details: source organism: Mammarenavirus lassaense
HLA-B*39:01 [4] = assay: as above
HLA-A*29:02 = assay: as above
HLA-B*27:05 = assay: as above
HLA-B*57:01 [5] = assay: as above
HLA-B*48:01 = assay: as above
HLA-B*40:01 = assay: as above; details: source organism: Mammarenavirus lassaense
HLA-B*07:02 = assay: as above; details: source organism: Mammarenavirus lassaense
HLA-B*44:02 = assay: as above
HLA-B*15:01 [6] = assay: as above
HLA-A*01:01 = assay: as above
HLA-A*31:01 [7] = assay: as above
HLA-B*18:01 [8] = assay: as above
HLA-A*02:01 [9] = assay: as above
HLA-A*11:01 = assay: as above; details: source organism: Mammarenavirus lassaense
HLA-A*03:01 [10] = assay: as above
HLA-A*69:01 [11] = assay: as above; details: source organism: Mammarenavirus lassaense
HLA-B*46:01 [12] = assay: as above
HLA-B*39:01 [13] = assay: IEDB peptide-MHC binding, purified MHC/competitive/fluorescence; filed as Kd, often an IC50 or EC50 that approximates it; ≥ and ≤ were set here for values at or beyond the usual limits of such assays
HLA-A*02:12 [14] = assay: as above
HLA-A*02:11 [15] = assay: as above; details: source organism: Escherichia coli
HLA-B*51:01 = assay: as above
HLA-B*15:17 = assay: as above
HLA-B*57:01 [16] = assay: as above
HLA-A*02:19 [17] = assay: as above
HLA-A*68:02 [18] = assay: as above
HLA-A*26:01 = assay: as above
HLA-B*15:01 [19] = assay: as above
HLA-B*18:01 [20] = assay: as above
HLA-A*02:01 [21] = assay: as above
HLA-A*03:01 [22] = assay: as above
HLA-A*69:01 [23] = assay: as above
HLA-B*46:01 [24] = assay: as above
HLA-B*27:03 = assay: as above
HLA-A*02:03 [25] = assay: as above; details: source organism: Yersinia mollaretii ATCC 43969
HLA-A*02:12 [26] = assay: IEDB peptide-MHC binding, purified MHC/direct/fluorescence; filed as Kd, often an IC50 or EC50 that approximates it; ≥ and ≤ were set here for values at or beyond the usual limits of such assays
HLA-A*02:03 [27] = assay: as above; details: source organism: Orthohantavirus andesense
HLA-A*02:19 [28] = assay: as above; details: source organism: Orthohantavirus andesense
HLA-A*02:11 [29] = assay: as above; details: source organism: Orthohantavirus tulaense
HLA-A*68:02 [30] = assay: as above; details: source organism: Orthohantavirus tulaense
[31] = source organism: Cryptosporidium parvum Iowa II
[32] = source organism: Mammarenavirus lassaense
[33] = source organism: Escherichia coli
[34] = source organism: Yersinia mollaretii ATCC 43969
[35] = source organism: Orthohantavirus andesense
[36] = source organism: Orthohantavirus puumalaense
[37] = source organism: Isla Vista hantavirus
[38] = source organism: Orthohantavirus tulaense
[39] = source organism: Vibrio vulnificus CMCP6

Measured: pKd

CIIGTVSKF
7.31: HLA-A*24:03 [1]; source organism: Amur virus
7.01: HLA-A*23:01; source organism: Amur virus

GFKRGIFIF
8.70: HLA-A*23:01; [31]
≥ 9.00: HLA-A*24:03 [1]; [31]

HFFESLYAR
8.80: HLA-A*31:01 [3]
5.38: HLA-A*24:03 [2]; source organism: Bacillus anthracis str. A0488

KHDEEFCDM
≤ 4.70: HLA-B*58:01 | HLA-B*39:01 [4]; [32] | HLA-A*29:02; [32] | HLA-B*27:05; [32] | HLA-B*57:01 [5]; [32] | HLA-B*48:01; [32] | HLA-B*40:01 | HLA-B*07:02 | HLA-B*44:02; [32] | HLA-B*15:01 [6]; [32] | HLA-A*01:01; [32] | HLA-A*31:01 [7]; [32] | HLA-B*18:01 [8]; [32] | HLA-A*02:01 [9]; [32] | HLA-A*11:01 | HLA-A*03:01 [10]; [32] | HLA-A*69:01 [11] | HLA-B*46:01 [12]; [32]

MFWKLPPWL
7.87: HLA-A*02:11 [15]
≤ 4.70: HLA-B*39:01 [13]; [33] | HLA-A*02:12 [14]; [33] | HLA-B*51:01; [33] | HLA-B*15:17; [33] | HLA-B*57:01 [16]; [33] | HLA-A*02:19 [17]; [33] | HLA-A*68:02 [18]; [33] | HLA-A*26:01; [33] | HLA-B*15:01 [19]; [33] | HLA-B*18:01 [20]; [33] | HLA-A*02:01 [21]; [33] | HLA-A*03:01 [22]; [33] | HLA-A*69:01 [23]; [33] | HLA-B*46:01 [24]; [33] | HLA-B*27:03; [33]

MMWIPGWFG
6.73: HLA-A*02:12 [14]; [34]
≤ 4.70: HLA-B*39:01 [13]; [34] | HLA-A*02:03 [25] | HLA-B*51:01; [34] | HLA-B*15:17; [34] | HLA-B*57:01 [16]; [34] | HLA-A*02:19 [17]; [34] | HLA-A*68:02 [18]; [34] | HLA-A*24:03 [2]; [34] | HLA-A*26:01; [34] | HLA-B*15:01 [19]; [34] | HLA-B*18:01 [20]; [34] | HLA-A*02:01 [21]; [34] | HLA-A*03:01 [22]; [34] | HLA-B*46:01 [24]; [34] | HLA-B*27:03; [34]

QYTRNSFYI
9.52: HLA-A*24:03 [2]; source organism: Escherichia coli 536

RWASGVSEI
9.70: HLA-A*24:03 [2]; [35]
≤ 4.70: HLA-B*39:01 [13]; [35] | HLA-B*51:01; [35] | HLA-B*57:01 [16]; [35] | HLA-A*26:01; [35] | HLA-B*18:01 [20]; [35] | HLA-B*46:01 [24]; [35] | HLA-B*27:03; [35] | HLA-A*02:12 [26]; [35] | HLA-A*02:03 [27] | HLA-A*02:19 [28] | HLA-A*03:01 [10]; [35]

SSLRYGNVL
≤ 4.70: HLA-B*51:01; [36] | HLA-A*26:01; [36] | HLA-A*69:01 [23]; [36] | HLA-B*27:03; [36] | HLA-A*02:12 [26]; [38] | HLA-A*02:11 [29] | HLA-A*29:02; [37] | HLA-B*27:05; [37] | HLA-B*57:01 [5]; [37] | HLA-A*68:02 [30] | HLA-A*24:03 [1]; [38] | HLA-B*48:01; [37] | HLA-B*44:02; [37] | HLA-B*15:01 [6]; [37] | HLA-A*01:01; [37] | HLA-A*31:01 [7]; [37] | HLA-B*18:01 [8]; [37] | HLA-A*02:01 [9]; [37] | HLA-A*03:01 [10]; [37] | HLA-B*46:01 [12]; [37]
5.40: HLA-B*39:01 [4]; [37]

SVYFAAFAF
7.18: HLA-A*24:03 [1]; [39]
7.80: HLA-A*23:01; [39]
≤ 4.70: HLA-B*46:01 [24]; source organism: Vibrio vulnificus YJ016
